We go through two substances from paper PMC4831045.

pKd: −log10 of the molar value.

The target of assay [1] is cNTnC N-terminal domain (Homo sapiens) (UniProt P63316). To be noted: cited from earlier work.
Assay [2] addresses cTnC(C35S)-i9: cardiac troponin C (C35S) with the levosimendan analog i9 covalently bound to C84 (UniProt P63316). The assay can be described thus: NMR titration; 19F NMR; 530 μM Ca2+-saturated cTnC(C35S)-i9 in NMR buffer (100 mM KCl, 10 mM imidazole, 2 mM CaCl2, pH 6.9), 30 °C, titrated with switch-cTnI (144–163) 0 to 1,540 μM; area under the F4′ signal of i9 fit with one-to-one stoichiometry (xcrvfit).

switch-cTnI 144-163, sequence (P19429 144-163): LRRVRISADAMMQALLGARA

Broadly, the pKd is the Kd on a negative log10 scale, so that one unit is a factor of ten. Turning to “switch-cTnI 144-163 (from UniProt P19429)”, in assay [1], the pKd was 4.59. In assay [2], “switch-cTnI (residues 144–163) (peptide)” had a negative logarithm of the Kd (pKd) of 4.13.
